Test results reported in article PMC7613929 (Nature microbiology, 2022).
Several values for one entry are separate records, joined by “and”; a condition that tells them apart may be missing. Equal entries are not always repeated. Ends that are not written are not given here.

What was measured:
[1] = tested on: FtsA cysteine mutant E. coli strains; test: In vivo cysteine cross-linking, Western blot; type: cell-based, Escherichia coli; settings: Western blot against 3x HA-tag
Method: Strains were grown to exponential phase (OD600 = 0.2-0.4) in LB from overnight cultures, and 0.9375 OD units harvested using centrifugation at 4°C. Cells were kept on ice for the duration of the experiment, unless stated otherwise. Cells were washed in 500 μl PBS and resuspended in 50 μl PBS. 1.25 μl DMSO or cross-linker (dBBr: Dibromobimane, BMOE: Bismaleimidoethane, BMB: 1,4-bismaleimidobutane or BMH: Bismaleimidohexane) in DMSO (20 mM stock) were added. Samples were incubated for 10 min and quenched by adding 1 μl 2-ME (1.43 M stock in MPW). Cells were resuspended in 50 μl lysis buffer [1 mM EDTA (pH 7.4), 14.3 mM 2-ME, cOmplete EDTA-free Protease Inhibitor Cocktail (Roche), 0.25 U/μl Benzonase (Merck) and 0.5 U/μl ReadyLyse Lysozyme (Lucigen) in B-PER (ThermoFisher)]. Samples were incubated at RT for 5 min. 50 μl of 2x SDS sample loading buffer supplemented with 3 % v/v 2-ME were added. Samples were incubated at 95°C for 5 min, and the equivalent of 0.1875 OD units of cells was analysed by SDS-PAGE. Western blotting was performed using a Trans-Blot turbo (BioRad) with the corresponding Midi 0.2 μm PVDF transfer pack. Blots were run at 25 V and 2.5 A for 7 min. Membranes were blocked in PBS + 5 % milk for 30-40 min, washed in PBS and incubated with anti-HA-Peroxidase antibody (Roche 12013819001) (1/1000 in PBST + 5 % milk) at RT for 1-1.5h. Membranes were washed thoroughly with PBST, developed using the ECL Prime Western blotting detection kit (Amersham/Cytiva) and imaged on a Gel DocTM XR+ (Bio-Rad). Presented images were contrast-adjusted for display purposes.

[2] = target: T1, FtsA (Escherichia coli, UniProt P0ABH0); test: SPR, EcFtsN^1-32 truncations and mutations binding to immobilised FtsA; settings: SPR equilibrium response; peptide 1:2 dilution series from 20 μM; mean ± SEM (n ≥ 2 for each construct); asterisk: maximum response fixed during fitting, approximate values; ND: not determinable; read-out: SPR K^eqd
T1 construct: made in house; host or cells: E. coli C41(DE3)
Method: SPR was performed using a Biacore T200 using CM5-sensor chips (Cytiva). Reference control and analyte channels were equilibrated in binding buffer. […] After reference and buffer signal correction, sensogram data were fitted using Prism 8.0 (GraphPad). Equilibrium response (Req) data were fitted to a single-site interaction model to determine Kd: (1) Req=(CRmax/C+Kd)+B, where C is the analyte concentration and Rmax is the maximum response at saturation and B is the background resonance.

[3] = target: Vibrio maritimus FtsA residues 1-396 (VmFtsA^1-396) (Vibrio maritimus); test: crystal structure; co-crystallisation of VmFtsA^1-396 at 3 mg/ml with 2 mM ATP and 0.353 mM VmFtsN^1-29; crystallisation at pH 8.5
[4] = target: VmFtsN^1-29-C-Atto 495 (Vibrio maritimus); test: fluorescence polarisation; C-terminally truncated FtsA titrated (1:2 dilution series) into 20 nM Atto 495-labelled FtsN peptide; binding buffer with 0.05 % v/v Tween-20, RT; two-step model
[5] = target: Vibrio maritimus FtsA residues 1-396 (VmFtsA^1-396) (Vibrio maritimus); test: SPR; Biacore T200, FtsA immobilised on CM5 chip by amide coupling (2000-7800 RU), FtsN peptides injected 120 s in 1:2 dilution series; binding buffer (50 mM HEPES/KOH, 100 mM KAc, 5 mM MgAc2, pH 7.7); equilibrium response fitted to a single-site model
[6] = target: T2, Vibrio maritimus FtsA residues 1-396 (VmFtsA^1-396) (Vibrio maritimus); test: FP; two-step model, first transition (FtsN binding)
T2 chain: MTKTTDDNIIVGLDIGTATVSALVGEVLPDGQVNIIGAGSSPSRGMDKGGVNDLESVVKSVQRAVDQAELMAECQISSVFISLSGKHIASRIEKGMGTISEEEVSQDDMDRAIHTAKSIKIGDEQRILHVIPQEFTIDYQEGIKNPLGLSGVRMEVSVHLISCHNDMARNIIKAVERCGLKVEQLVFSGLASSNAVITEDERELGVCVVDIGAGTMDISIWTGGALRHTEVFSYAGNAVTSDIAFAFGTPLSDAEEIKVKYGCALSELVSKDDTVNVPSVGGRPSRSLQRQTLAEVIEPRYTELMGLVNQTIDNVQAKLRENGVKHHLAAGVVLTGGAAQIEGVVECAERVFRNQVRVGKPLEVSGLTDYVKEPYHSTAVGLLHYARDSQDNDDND

[7] = target: T2, Vibrio maritimus FtsA residues 1-396 …; test: AUC; two-step model, first transition (FtsN binding)
[8] = target: T2, Vibrio maritimus FtsA residues 1-396 …; test: FP; two-step model, second transition (polymerisation)
[9] = target: T2, Vibrio maritimus FtsA residues 1-396 …; test: AUC; two-step model, second transition (polymerisation)
[10] = target: the molecule itself; test: co-sedimentation; co-pelleting: truncated FtsA at 1 mg/ml (~23 μM) with half, 1-, 3-, 6- or 10-fold molar FtsN peptide in binding buffer, 20°C, 20,000x g for 10 min, SDS-PAGE of supernatant and pellet
[11] = target: the molecule itself; test: cryo-EM with 2D classification; EcFtsA at 0.15 mg/ml with 1 mM ATP on lipid monolayer, without FtsN peptide
[12] = ftsA^3x HA, Q155C mutant, exponential phase cells in PBS on ice, 10 min

With `O=C1C=CC(=O)N1CCCCN1C(=O)C=CC1=O` [BMB, 1,4-bismaleimidobutane] the “Covalent FtsA dimer after in vivo cross-linking, in words” value (shortened to “Covalent FtsA dimer”) [1, 12] was “FtsA dimers can be detected”.

In the case of `O=C1C=CC(=O)N1CCCCCCN1C(=O)C=CC1=O` [BMH, bismaleimidohexane], the “Covalent FtsA dimer” value [1, 12] is reported as “FtsA dimers can be detected”.

For `O=C1C=CC(=O)N1CCN1C(=O)C=CC1=O` [BMOE, bismaleimidoethane], the “Covalent FtsA dimer” value ([1]; double cysteine mutants ftsA^3x HA, P98C, S118C and ftsA^3x HA, E199C, S252C) was “Signal for covalent FtsA dimers can be detected for both double cysteine mutants” and the “Covalent FtsA dimer” value [1, 12] was “but not with BMOE”.

With `Cc1c(CBr)n2c(CBr)c(C)c(=O)n2c1=O` [dBBr, dibromobimane] the “Covalent FtsA dimer” value ([1]; ftsA^3x HA, D123C mutant, exponential phase cells in PBS on ice, 10 min) was “Signal for a FtsA dimer can be detected”.

“MAQRDYVRRSQPAPSAASASTSRKKQRNLPAV [EcFtsN^1-32, ΔRK2]” was tested, and the Kd [2] was roughly 166 µM.

With “MAQRDYVRRSQPAPSRRKKSTSASAQRNLPAV [EcFtsN^1-32, ΔRK3]” the Kd [2] was roughly 80.6 µM.

“Vibrio maritimus FtsA residues 1-396 (VmFtsA^1-396) (domain or fragment)” gave a stoichiometry N [3] of 4 and a fold weaker for the first binding event than EcFtsA^1-405 with FtsN^(1-32-C-Atto 495) [4] of 4 fold.

Molecule “Vibrio maritimus FtsN cytoplasmic peptide, residues 1-29 (VmFtsN^1-29)” has a fold weaker than the EcFtsA^1-405-EcFtsN^1-32 interaction [5] of 3 fold.

B1: VmFtsN^1-29-C-Atto 495 (peptide)
chain: MANRDYVRRGKGTSRRPAKKKTSGKKPWRC
modifications: Atto 495 (maleimide) on the added C-terminal cysteine
Work on B1 yielded a Kd [6] of 0.062 µM, a Kd [7] of 0.018 µM and a Kd [8] of 10 µM. It also gave a Kd [9] of 55 µM.

B2: E. coli FtsA residues 1-405 (EcFtsA^1-405) (domain or fragment, UniProt P0ABH0 1-405, looked up)
chain: MIKATDRKLVVGLEIGTAKVAALVGEVLPDGMVNIIGVGSCPSRGMDKGGVNDLESVVKCVQRAIDQAELMADCQISSVYLALSGKHISCQNEIGMVPISEEEVTQEDVENVVHTAKSVRVRDEHRVLHVIPQEYAIDYQEGIKNPVGLSGVRMQAKVHLITCHNDMAKNIVKAVERCGLKVDQLIFAGLASSYSVLTEDERELGVCVVDIGGGTMDIAVYTGGALRHTKVIPYAGNVVTSDIAYAFGTPPSDAEAIKVRHGCALGSIVGKDESVEVPSVGGRPPRSLQRQTLAEVIEPRYTELLNLVNEEILQLQEKLRQQGVKHHLAAGIVLTGGAAQIEGLAACAQRVFHTQVRIGAPLNITGLTDYAQEPYYSTAVGLLHYGKESHLNGEAEVEKRVTASV
notes: also called C-terminally truncated FtsA; source: E. coli C41(DE3), purified (HisTrap, SUMO cleavage with GST-SENP1, SEC); not shown: 6H-SUMO, N-terminal, cleaved
B2: binds [10].

B3: E. coli FtsA (EcFtsA), full length (natural protein, UniProt P0ABH0 1-420, looked up)
chain: MIKATDRKLVVGLEIGTAKVAALVGEVLPDGMVNIIGVGSCPSRGMDKGGVNDLESVVKCVQRAIDQAELMADCQISSVYLALSGKHISCQNEIGMVPISEEEVTQEDVENVVHTAKSVRVRDEHRVLHVIPQEYAIDYQEGIKNPVGLSGVRMQAKVHLITCHNDMAKNIVKAVERCGLKVDQLIFAGLASSYSVLTEDERELGVCVVDIGGGTMDIAVYTGGALRHTKVIPYAGNVVTSDIAYAFGTPPSDAEAIKVRHGCALGSIVGKDESVEVPSVGGRPPRSLQRQTLAEVIEPRYTELLNLVNEEILQLQEKLRQQGVKHHLAAGIVLTGGAAQIEGLAACAQRVFHTQVRIGAPLNITGLTDYAQEPYYSTAVGLLHYGKESHLNGEAEVEKRVTASVGSWIKRLNSWLRKEF
notes: FtsA, E. coli, full length; also called WT; source: E. coli C41(DE3), purified (HisTrap, chitin resin with intein cleavage, SEC); not shown: intein-CBD-12H, C-terminal, cleaved
In the case of B3, the “stoichiometry N” value [11] is reported as 13 and 12.
